{
  "source": "patent US6951717",
  "data": [
    {"biological_target": "viral gp41 (HIV-1 transmembrane protein) of HIV-1IIIB (HIV-1IIIB) (UniProt P04578)", "assay": "cell-based or functional assay", "units": {"Cell fusion (IC90)": "nM", "HIV infectivity (IC90)": "nM"}, "values": [
      {"substance": "DP107 (SEQ ID NO:25), synthetic peptide corresponding to amino acids 558 to 595 of HIV-1LAI gp41", "Cell fusion (IC90)": 1000, "HIV infectivity (IC90)": 1000},
      {"substance": "DP178 (SEQ ID NO:1), synthetic peptide corresponding to amino acids 638 to 673 of HIV-1LAI gp41", "Cell fusion (IC90)": 1, "HIV infectivity (IC90)": 80},
      {"substance": "M41 (maltose binding protein fused to the extracellular domain of HIV-1 gp41, residues 540-686) (from UniProt P0AEX9 27-392; P03377 540-686)", "Cell fusion (IC90)": "> 50000", "HIV infectivity (IC90)": "> 16000"},
      {"substance": "M41-P (M41 with an Ile to Pro mutation at position 578) (from UniProt P0AEX9 27-392; P03377 540-686)", "Cell fusion (IC90)": 83, "HIV infectivity (IC90)": 66}
    ]}
  ]
}
